Literature values as cited in publication PMC3883350.
Read-outs that look alike come from different tables or passages of the source.

How the values were obtained:
[1] = target: PACAP (Homo sapiens) (UniProt P18509)
[2] = target: VIP (Homo sapiens) (UniProt P01282)
[3] = target: VIP (Homo sapiens) (UniProt P01282); remark: listed apart in the source
[4] = target: PACAP (Homo sapiens) (UniProt P18509); remark: listed apart in the source
[5] = target: PACAP (Homo sapiens) (UniProt P18509); remark: listed apart in the source
[6] = target: VIP (Homo sapiens) (UniProt P01282); remark: listed apart in the source

Sequence of UniProt P18509 (P18509 82-129): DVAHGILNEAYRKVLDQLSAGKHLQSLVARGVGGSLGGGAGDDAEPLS
Sequence of UniProt P01282 (P01282 125-152): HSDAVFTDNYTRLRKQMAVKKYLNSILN

In the case of VPAC1 (from UniProt P32241), the Kd [1] is given as 1 nM and the Kd [2] is given as 1 nM.

In the case of PAC1 (from UniProt P41586), the Kd [3] is given as > 500 nM and the Kd [4] is given as 0.5 nM.

For VPAC2 (from UniProt P41587), the Kd [5] is listed as 1 nM and the Kd [6] is listed as 1 nM.
